Where no end group is shown, it is not given here.
Key:
Assay in all cases: fluorescence polarisation; direct: N-terminally fluorescein-labelled PBM peptide (tracer) with increasing amounts of MBP-PDZ; 384-well plates; triplicate; direct binding model (ProFit)
Settings in all cases: both partners purified
[1] = target: T1, MAGI2-2, second PDZ domain of MAGI2 (human, UniProt Q86UL8 426-510)
T1 construct: not shown: His6, N-terminal, kept; MBP, N-terminal, kept

SYNJ2BP PDZ domain = target: T2, SYNJ2BP PDZ domain (human, UniProt P57105 13-100)
T2 sequence (looked up): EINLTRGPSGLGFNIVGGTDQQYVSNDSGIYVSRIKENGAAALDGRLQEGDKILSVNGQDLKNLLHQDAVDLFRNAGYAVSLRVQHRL

[2] = target: T3, NHERF3-1, first PDZ domain of NHERF3 (human, UniProt Q5T2W1 9-90)
T3 sequence (looked up): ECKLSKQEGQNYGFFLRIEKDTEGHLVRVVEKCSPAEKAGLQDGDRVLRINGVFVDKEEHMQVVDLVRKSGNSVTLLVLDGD

[3] = target: MAGI1-2, second PDZ domain of MAGI1 (human, UniProt Q96QZ7 472-554)
Chain of MAGI1-2, second PDZ domain of MAGI1 (Q96QZ7 472-554): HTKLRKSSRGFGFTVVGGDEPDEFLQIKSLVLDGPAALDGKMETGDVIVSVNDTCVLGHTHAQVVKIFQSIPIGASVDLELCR

[4] = target: T4, PDZRN3-1, first PDZ domain of PDZRN3 (human, UniProt Q9UPQ7 249-339)
T4 sequence (looked up): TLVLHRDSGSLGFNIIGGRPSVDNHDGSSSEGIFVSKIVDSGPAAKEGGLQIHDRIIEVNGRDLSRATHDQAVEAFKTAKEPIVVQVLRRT

[5] = target: T5, PDZRN4-1, first PDZ domain of PDZRN4 (human, UniProt Q6ZMN7 224-314)
T5 sequence (looked up): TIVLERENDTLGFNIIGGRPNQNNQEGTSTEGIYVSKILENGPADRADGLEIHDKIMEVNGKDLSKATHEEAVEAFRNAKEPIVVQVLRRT

[6] = target: DLG4-3, third PDZ domain of DLG4 (human, UniProt P78352 313-393)
Chain of DLG4-3, third PDZ domain of DLG4 (P78352 313-393): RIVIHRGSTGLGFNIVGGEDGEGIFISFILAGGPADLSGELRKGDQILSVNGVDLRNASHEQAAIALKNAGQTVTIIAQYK

[7] = target: T6, SCRIB-3, third PDZ domain of SCRIB (human, UniProt Q14160 1004-1093)
T6 sequence (looked up): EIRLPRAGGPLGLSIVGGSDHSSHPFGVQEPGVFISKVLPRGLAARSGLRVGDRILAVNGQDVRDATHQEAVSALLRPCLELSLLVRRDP

T1 sequence (Q86UL8 426-510): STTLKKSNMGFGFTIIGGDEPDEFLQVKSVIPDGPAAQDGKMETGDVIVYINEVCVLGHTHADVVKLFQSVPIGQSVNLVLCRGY

Question: Which results are given for fluorescein-RTRRETQL (source: synthetic peptide) [f16E6, fluorescein-labelled HPV16 E6 PBM peptide]?
Answer: Kd [1]: 2.77 µM; Kd (SYNJ2BP PDZ domain): 2.28 µM; Kd [2]: 2.34 µM; Kd [3]: 0.5 µM; Kd [4]: 1.08 µM; Kd [5]: 2.93 µM; Kd [6]: 7.27 µM; Kd [7]: 1.47 µM

Reference: PMC7774954 (PLoS ONE, 2020)
